# Reference: paper PMC8501996
# B1: H69-Q2 (structured_DNA)
# DNA: GGGTTAGGGTTAGGGTTAGGGTTAGGGTTAGGGTTAGGGTTAGGGTTAGGGTTAGGGTTAGGGTTAGGG
# modifications: 6FAM-dT in 4th repeat (T23); TAMRA-dT in 8th repeat (T47)
# Target: hRPA1;hRPA2;hRPA3 (Homo sapiens;Homo sapiens;Homo sapiens, UniProt P27694;P15927;P35244 1-616;1-270;1-121, ||)
# Test: FRET kinetics
# hRPA1;hRPA2;hRPA3, sequence (P27694 whole entry, chain 1 of 3): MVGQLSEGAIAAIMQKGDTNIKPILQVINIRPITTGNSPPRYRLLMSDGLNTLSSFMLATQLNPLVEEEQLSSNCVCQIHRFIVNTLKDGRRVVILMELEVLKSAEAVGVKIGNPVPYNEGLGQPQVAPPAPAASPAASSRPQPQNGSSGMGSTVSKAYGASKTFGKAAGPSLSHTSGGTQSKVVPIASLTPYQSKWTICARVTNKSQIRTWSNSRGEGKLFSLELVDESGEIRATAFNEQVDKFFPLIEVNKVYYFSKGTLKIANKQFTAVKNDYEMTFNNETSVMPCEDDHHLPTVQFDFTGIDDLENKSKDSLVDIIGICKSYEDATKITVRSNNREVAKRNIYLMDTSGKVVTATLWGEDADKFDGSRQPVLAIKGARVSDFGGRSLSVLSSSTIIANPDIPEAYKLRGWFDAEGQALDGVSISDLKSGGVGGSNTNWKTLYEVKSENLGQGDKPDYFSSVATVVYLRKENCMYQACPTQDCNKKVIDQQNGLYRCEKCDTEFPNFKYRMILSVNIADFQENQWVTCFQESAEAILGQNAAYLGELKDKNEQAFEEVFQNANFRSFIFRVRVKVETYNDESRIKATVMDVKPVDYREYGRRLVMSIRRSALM
# hRPA1;hRPA2;hRPA3, sequence (P15927 whole entry, chain 2 of 3): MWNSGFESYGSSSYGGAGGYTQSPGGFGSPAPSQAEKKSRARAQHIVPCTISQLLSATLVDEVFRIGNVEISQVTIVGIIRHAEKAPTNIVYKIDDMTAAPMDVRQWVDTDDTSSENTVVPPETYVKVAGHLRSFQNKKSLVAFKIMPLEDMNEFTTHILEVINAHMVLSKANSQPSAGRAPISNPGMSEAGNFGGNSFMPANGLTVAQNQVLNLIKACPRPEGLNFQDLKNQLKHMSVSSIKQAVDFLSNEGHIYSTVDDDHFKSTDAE
# hRPA1;hRPA2;hRPA3, sequence (P35244 whole entry, chain 3 of 3): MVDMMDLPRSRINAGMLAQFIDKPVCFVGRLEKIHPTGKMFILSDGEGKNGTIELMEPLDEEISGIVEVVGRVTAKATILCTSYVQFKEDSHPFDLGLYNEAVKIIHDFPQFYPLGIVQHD
binder,measurement,value
B1,binding result,binds
